These results are taken from patent publication US20220363778A1 (RESEARCH FOUNDATION FOR THE STATE UNIVERSITY OF NEW YORK, published 2022).

In test [1] the target is T1, mouse serum albumin (MSA) (MyBioSource, MBS135633) (mouse, UniProt P07724 25-608, limits assumed).
T1 construct: Immobilised on the SPR chip for kinetics
Nature of the test: SPR, mouse serum albumin immobilised on the chip, 2Rb17c-ColH-ABD injected at 7.5-75 nM, 10 min dissociation, 1:1 Langmuir fit in Scrubber. Here is the method: (§1) Surface plasmon resonance (SPR) was performed using a Reichert SR7500DC SPR and SR8100 autosampler (Reichert, Depew, N.Y.). HER2-Fc (Sino Biological, Beijing, China, 10004-H02H) or mouse serum albumin (MSA) (MyBioSource, San Diego, Calif., MBS135633) was immobilized onto a carboxymethyl dextran SPR chip (Reichert, Depew, N.Y., 13206066) using 1-Ethyl-3-(3-dimethylaminopropyl)carbodiimide/N-hydroxysuccinimide linker chemistry. A mobile phase of PBS 0.05% Tween-20 at a flow rate of 25 μL/min was used for all binding evaluations. Fusion protein dilutions were injected for 90 seconds, and the chip regenerated following dissociation with a 2-minute injection of a 10 millimolar (mM) glycine buffer pH 1.5. […] The observed sensor-grams were fit to a 1:1 Langmuir binding model in the Scrubber analysis software to obtain the association rate constant (kon), dissociation rate constant (koff), and the equilibrium dissociation constant (KD).

Test [2] concerns the target T2, HER2-Fc (Sino Biological, 10004-H02H) (UniProt P04626 23-652).
T2 construct: Bought reagent, immobilised on a carboxymethyl dextran SPR chip by EDC/NHS; not shown: Fc portion of the bought reagent
Nature of the test: SPR, HER2-Fc immobilised, 1:1 Langmuir fit.

The target in test [3] is T1, mouse serum albumin (MSA) (MyBioSource, …). Nature of the test: SPR, mouse serum albumin immobilised on the chip, 2Rs15d-ColH-ABD injected at 7.5-60 nM, 10 min dissociation, 1:1 Langmuir fit in Scrubber. Here is the method:
as §1
Background: SPR reads the build-up and loss of mass on a sensor chip optically.

For test [4] the target is unchanged. Nature of the test: SPR, mouse serum albumin injected at about 400 s over 2Rs15d-ColH held on a HER2-Fc chip. The text has this:
Surface plasmon resonance was used to assess HER2 and MSA binding.

As usually defined, the Kd is the concentration at which binding is half-saturated. The low end stands for tighter binding, the high end for weaker binding.

B1: 2Rb17c-ColH-ABD fusion protein (other)
chain: QVQLQESGGGLVQPGGSLRLSCAASGFIFSNDAMTWVRQAPGKGLEWVSSINWSGTHTNYADSVKGRFTISRDNAKRTLYLQMNSLKDEDTALYYCVTGYGVTKTPTGQGTQVTVSSGGGSGGGSGGGSVQNESKRYTVSYLKTLNYYDLVDLLVKTEIENLPDLFQYSSDAKEFYGNKTRMSFIMDEIGRRAPQYTEIDHKGIPTLVEVVRAGFYLGFHNKELNEINKRSFKERVIPSILAIQKNPNFKLGTEVQDKIVSATGLLAGNETAPPEVVNNFTPILQDCIKNIDRYALDDLKSKALFNVLAAPTYDITEYLRATKEKPENTPWYGKIDGFINELKKLALYGKINDNNSWIIDNGIYHIAPLGKLHSNNKIGIETLTEVMKVYPYLSMQHLQSADQIKRHYDSKDAEGNKIPLDKFKKEGKEKYCPKTYTFDDGKVIIKAGARVEEEKVKRLYWASKEVNSQFFRVYGIDKPLEEGNPDDILTMVIYNSPEEYKLNSVLYGYDTNNGGMYIEPEGTFFTYEREAQESTYTLEELFRHEYTHYLQGRYAVPGQWGRTKLYDNDRLTWYEEGGAELFAGSTRTSGILPRKSIVSNIHNTTRNNRYKLSDTVHSKYGASFEFYNYACMFMDYMYNKDMGILNKLNDLAKNNDVDGYDNYIRDLSSNYALNDKYQDHMQERIDNYENLTVPFVADDYLVRHAYKNPNEIYSEISEVAKLKDAKSEVKKSQYFSTFTLRGSYTGGASKGKLEDQKAMNKFIDDSLKKLDTYSWSGYKTLTAYFTNYKVDSSNRVTYDVVFHGYLPNEGDSKNSLPYGKINGTYKGTEKEKIKFSSEGSFDPDGKIVSYEWDFGDGNKSNEENPEHSYDKVGTYTVKLKVTDDKGESSVSTTTAEIKDLSENKLPVIYMHVPKSGALNQKVVFYGKGTYDPDGSIAGYQWDFGDGSDFSSEQNPSHVYTKKGEYTVTLRVMDSSGQMSEKTMKIKITDPVYPIGTEKEPNNSKETASGPIVPGIPVSGTIENTSDQDYFYFDVITPGEVKIDINKLGYGGATWVVYDENNNAVSYATDDGQNLSGKFKADKPGRYYIHLYMFNGSYMPYRINIEGGGSGGGSLEVLFQGPGGGSLAEAKVLANRELDKYGVSDFYKRLINKAKTVEGVEALKLHILAALPHHHHHH
B1: the Kd turned out to be 1.6 nM in test [1] and 17.1 nM in test [2].

B2: 2Rs15d-ColH-ABD fusion protein (other)
chain: QVQLQESGGGSVQAGGSLKLTCAASGYIFNSCGMGWYRQSPGRERELVSRISGDGDTWHKESVKGRFTISQDNVKKTLYLQMNSLKPEDTAVYFCAVCYNLETYWGQGTQVTVSSGGGSGGGSGGGSVQNESKRYTVSYLKTLNYYDLVDLLVKTEIENLPDLFQYSSDAKEFYGNKTRMSFIMDEIGRRAPQYTEIDHKGIPTLVEVVRAGFYLGFHNKELNEINKRSFKERVIPSILAIQKNPNFKLGTEVQDKIVSATGLLAGNETAPPEVVNNFTPILQDCIKNIDRYALDDLKSKALFNVLAAPTYDITEYLRATKEKPENTPWYGKIDGFINELKKLALYGKINDNNSWIIDNGIYHIAPLGKLHSNNKIGIETLTEVMKVYPYLSMQHLQSADQIKRHYDSKDAEGNKIPLDKFKKEGKEKYCPKTYTFDDGKVIIKAGARVEEEKVKRLYWASKEVNSQFFRVYGIDKPLEEGNPDDILTMVIYNSPEEYKLNSVLYGYDTNNGGMYIEPEGTFFTYEREAQESTYTLEELFRHEYTHYLQGRYAVPGQWGRTKLYDNDRLTWYEEGGAELFAGSTRTSGILPRKSIVSNIHNTTRNNRYKLSDTVHSKYGASFEFYNYACMFMDYMYNKDMGILNKLNDLAKNNDVDGYDNYIRDLSSNYALNDKYQDHMQERIDNYENLTVPFVADDYLVRHAYKNPNEIYSEISEVAKLKDAKSEVKKSQYFSTFTLRGSYTGGASKGKLEDQKAMNKFIDDSLKKLDTYSWSGYKTLTAYFTNYKVDSSNRVTYDVVFHGYLPNEGDSKNSLPYGKINGTYKGTEKEKIKFSSEGSFDPDGKIVSYEWDFGDGNKSNEENPEHSYDKVGTYTVKLKVTDDKGESSVSTTTAEIKDLSENKLPVIYMHVPKSGALNQKVVFYGKGTYDPDGSIAGYQWDFGDGSDFSSEQNPSHVYTKKGEYTVTLRVMDSSGQMSEKTMKIKITDPVYPIGTEKEPNNSKETASGPIVPGIPVSGTIENTSDQDYFYFDVITPGEVKIDINKLGYGGATWVVYDENNNAVSYATDDGQNLSGKFKADKPGRYYIHLYMFNGSYMPYRINIEGGGSGGGSLEVLFQGPGGGSLAEAKVLANRELDKYGVSDFYKRLINKAKTVEGVEALKLHILAALPHHHHHH
notes: The text says (G4S)3 linkers and a TEV site; also called 2Rs15d-ColH-ABD035
In test [3], B2 gave a Kd of 1.5 nM.

B3: 2Rs15d-ColH fusion protein (2Rs15d-Clostridial Collagenase H fusion protein) (other)
chain: QVQLQESGGGSVQAGGSLKLTCAASGYIFNSCGMGWYRQSPGRERELVSRISGDGDTWHKESVKGRFTISQDNVKKTLYLQMNSLKPEDTAVYFCAVCYNLETYWGQGTQVTVSSGGGGSGGGGSGGGGSVQNESKRYTVSYLKTLNYYDLVDLLVKTEIENLPDLFQYSSDAKEFYGNKTRMSFIMDEIGRRAPQYTEIDHKGIPTLVEVVRAGFYLGFHNKELNEINKRSFKERVIPSILAIQKNPNFKLGTEVQDKIVSATGLLAGNETAPPEVVNNFTPILQDCIKNIDRYALDDLKSKALFNVLAAPTYDITEYLRATKEKPENTPWYGKIDGFINELKKLALYGKINDNNSWIIDNGIYHIAPLGKLHSNNKIGIETLTEVMKVYPYLSMQHLQSADQIKRHYDSKDAEGNKIPLDKFKKEGKEKYCPKTYTFDDGKVIIKAGARVEEEKVKRLYWASKEVNSQFFRVYGIDKPLEEGNPDDILTMVIYNSPEEYKLNSVLYGYDTNNGGMYIEPEGTFFTYEREAQESTYTLEELFRHEYTHYLQGRYAVPGQWGRTKLYDNDRLTWYEEGGAELFAGSTRTSGILPRKSIVSNIHNTTRNNRYKLSDTVHSKYGASFEFYNYACMFMDYMYNKDMGILNKLNDLAKNNDVDGYDNYIRDLSSNYALNDKYQDHMQERIDNYENLTVPFVADDYLVRHAYKNPNEIYSEISEVAKLKDAKSEVKKSQYFSTFTLRGSYTGGASKGKLEDQKAMNKFIDDSLKKLDTYSWSGYKTLTAYFTNYKVDSSNRVTYDVVFHGYLPNEGDSKNSLPYGKINGTYKGTEKEKIKFSSEGSFDPDGKIVSYEWDFGDGNKSNEENPEHSYDKVGTYTVKLKVTDDKGESSVSTTTAEIKDLSENKLPVIYMHVPKSGALNQKVVFYGKGTYDPDGSIAGYQWDFGDGSDFSSEQNPSHVYTKKGEYTVTLRVMDSSGQMSEKTMKIKITDPVYPIGTEKEPNNSKETASGPIVPGIPVSGTIENTSDQDYFYFDVITPGEVKIDINKLGYGGATWVVYDENNNAVSYATDDGQNLSGKFKADKPGRYYIHLYMFNGSYMPYRINIELEHHHHHH
notes: Fusion of a VHH (sdAb), a linker, Clostridium collagenase H and a His6 tag, expressed in E. coli SHuffle; also called targeted collagenase; anti-HER2-collagenase fusion protein
On to B3, for which the binding result in test [4] is “no binding”.
